One assay concerns the target T1, Flag-Tah1 (S. cerevisiae, UniProt P25638 1-111).
T1 construct: Tah1, yeast
T1 sequence (looked up): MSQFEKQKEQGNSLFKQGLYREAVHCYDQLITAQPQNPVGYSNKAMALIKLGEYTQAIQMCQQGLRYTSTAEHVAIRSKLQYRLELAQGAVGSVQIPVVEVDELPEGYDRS
The assay can be described thus: pull-down; 70 µM Flag-Tah1 and Hsp90 600-709 with increasing AIP 172-315 or full-length AIP (5-10 molar excess); 20 mM HEPES pH 7.5, 150 mM NaCl, 10% glycerol, 0.5% IGEPAL, 2 mM EDTA; captured on anti-Flag M2 magnetic beads; eluate on SDS-PAGE. The conditions noted are these: both partners purified.

For assay [1], the target named is T2, Tah1 (full-length yeast Tah1) (S. cerevisiae, UniProt P25638 1-111).
T2 construct: Tah1, yeast (S. cerevisiae), synthetic full-length gene expressed from pRSET-A; In the crystal two Tah1 chains form a helix-swapped dimer; in solution Tah1 is mainly monomeric; also called TPR domain of Tah1
T2 sequence (looked up): T1 sequence (looked up)
The assay can be described thus: crystal structure; Tah1 at 10 mg/ml with 5 mM … peptide; sitting drop, 100 mM MES pH 6.0, 200 mM ammonium chloride, 20% PEG 6000, 4°C; refined to 2 Å. The following applies: both partners purified.

B1: Hsp90 600-709 (domain or fragment)
chain: not shown
notes: Hsp90 C-terminal fragment, residues 600-709; Used at 70 µM in the pull-down; also called cHsp90
Turning to B1, the binding result with Flag-Tah1 is listed as “binds”.

B2: Hsp90 peptide EDASRMEEVD (peptide)
peptide: EDASRMEEVD
notes: C-terminal peptide of Hsp90 with the conserved MEEVD motif; also called MEEVD peptide of Hsp90; SRMEEVD peptide
With B2, the binding result in assay [1] is “binds”.

(Values after article PMC4427203, “Tah1 helix-swap dimerization prevents mixed Hsp90 co-chaperone complexes” (Acta Crystallographica Section D: Biological Crystallography, 2015).)
